T1: GST-PHB (PHABULOSA, HD-ZIPIII) (Arabidopsis thaliana, UniProt O04291 1-852)
T1 sequence: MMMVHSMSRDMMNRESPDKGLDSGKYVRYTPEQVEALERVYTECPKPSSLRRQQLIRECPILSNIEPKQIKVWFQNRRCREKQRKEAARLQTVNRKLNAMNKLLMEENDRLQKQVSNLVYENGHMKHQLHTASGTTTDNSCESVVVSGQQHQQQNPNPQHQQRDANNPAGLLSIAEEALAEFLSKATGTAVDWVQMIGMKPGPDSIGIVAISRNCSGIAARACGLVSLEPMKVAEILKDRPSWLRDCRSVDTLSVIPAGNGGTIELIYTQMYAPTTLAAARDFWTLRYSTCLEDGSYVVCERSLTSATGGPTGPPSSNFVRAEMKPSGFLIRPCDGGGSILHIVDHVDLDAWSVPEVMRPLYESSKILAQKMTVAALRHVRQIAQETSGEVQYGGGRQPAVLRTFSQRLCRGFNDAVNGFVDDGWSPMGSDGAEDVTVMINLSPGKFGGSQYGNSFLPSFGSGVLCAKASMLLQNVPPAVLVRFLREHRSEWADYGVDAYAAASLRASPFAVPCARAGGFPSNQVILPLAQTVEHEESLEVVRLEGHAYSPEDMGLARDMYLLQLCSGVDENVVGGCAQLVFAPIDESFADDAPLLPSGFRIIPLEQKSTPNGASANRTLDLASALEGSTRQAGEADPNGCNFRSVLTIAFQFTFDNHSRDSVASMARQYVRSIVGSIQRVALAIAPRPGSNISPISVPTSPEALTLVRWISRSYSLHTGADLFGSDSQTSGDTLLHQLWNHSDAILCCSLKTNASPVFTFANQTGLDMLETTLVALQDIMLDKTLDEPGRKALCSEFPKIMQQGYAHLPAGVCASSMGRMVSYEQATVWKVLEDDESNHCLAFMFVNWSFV

B1: ABI4 binding motif probe (dsDNA)
DNA 1: TTAGCCGTTATGTAATGATTTATTCTAGTTTCA
DNA 2: TGAAACTAGAATAAATCATTACATAACGGCTAA
B2: BG1 binding motif probe (dsDNA)
DNA 1: AGAAGTTTTGGTAATGATACTGAAACACATTTC
DNA 2: GAAATGTGTTTCAGTATCATTACCAAAACTTCT

Target: T1, GST-PHB (PHABULOSA, HD-ZIPIII)
Assay: EMSA; unlabeled self-competitor at 10x and 100x also tested (gel only); 20 mM Tris-HCl pH 7.5, 300 mM NaCl, 5 mM MgCl2, 0.1% NP-40, 0.5 mM DTT, 20-60 min, room temperature; 6% PAGE in Tris-glycine
Settings: protein: recombinant; tags: GST (N-terminal, pGEX4T-1); chain copies: 2; label: 32P; blunt

Binder | binding result
B1 | binds
B2 | binds

— PMC5094776, “The miR165/166 Mediated Regulatory Module Plays Critical Roles in ABA Homeostasis and Response in Arabidopsis thaliana”
